One substance from article doi:10.1101/2024.11.26.625467 can be followed below.

For orientation: stoichiometry N means a count of units in the complex or per binding partner.

The experiment deals with KS17 N2 NA (neuraminidase head of H3N2 A/Kansas/14/2017) (influenza A virus H3N2 A/Kansas/14/2017). The experiment is described as follows: cryo-EM structure.

With “KS17 N2 NA (neuraminidase head of H3N2 A/Kansas/14/2017) (domain or fragment)”, the stoichiometry N is 4.
